Measured values from patent US20250092426, “CAS ENDONUCLEASES AND RELATED METHODS” (Flagship Pioneering Innovations VII, LLC, published 2025).

Biological target: T1, CasEnd-26 (synthetic construct)
T1 chain: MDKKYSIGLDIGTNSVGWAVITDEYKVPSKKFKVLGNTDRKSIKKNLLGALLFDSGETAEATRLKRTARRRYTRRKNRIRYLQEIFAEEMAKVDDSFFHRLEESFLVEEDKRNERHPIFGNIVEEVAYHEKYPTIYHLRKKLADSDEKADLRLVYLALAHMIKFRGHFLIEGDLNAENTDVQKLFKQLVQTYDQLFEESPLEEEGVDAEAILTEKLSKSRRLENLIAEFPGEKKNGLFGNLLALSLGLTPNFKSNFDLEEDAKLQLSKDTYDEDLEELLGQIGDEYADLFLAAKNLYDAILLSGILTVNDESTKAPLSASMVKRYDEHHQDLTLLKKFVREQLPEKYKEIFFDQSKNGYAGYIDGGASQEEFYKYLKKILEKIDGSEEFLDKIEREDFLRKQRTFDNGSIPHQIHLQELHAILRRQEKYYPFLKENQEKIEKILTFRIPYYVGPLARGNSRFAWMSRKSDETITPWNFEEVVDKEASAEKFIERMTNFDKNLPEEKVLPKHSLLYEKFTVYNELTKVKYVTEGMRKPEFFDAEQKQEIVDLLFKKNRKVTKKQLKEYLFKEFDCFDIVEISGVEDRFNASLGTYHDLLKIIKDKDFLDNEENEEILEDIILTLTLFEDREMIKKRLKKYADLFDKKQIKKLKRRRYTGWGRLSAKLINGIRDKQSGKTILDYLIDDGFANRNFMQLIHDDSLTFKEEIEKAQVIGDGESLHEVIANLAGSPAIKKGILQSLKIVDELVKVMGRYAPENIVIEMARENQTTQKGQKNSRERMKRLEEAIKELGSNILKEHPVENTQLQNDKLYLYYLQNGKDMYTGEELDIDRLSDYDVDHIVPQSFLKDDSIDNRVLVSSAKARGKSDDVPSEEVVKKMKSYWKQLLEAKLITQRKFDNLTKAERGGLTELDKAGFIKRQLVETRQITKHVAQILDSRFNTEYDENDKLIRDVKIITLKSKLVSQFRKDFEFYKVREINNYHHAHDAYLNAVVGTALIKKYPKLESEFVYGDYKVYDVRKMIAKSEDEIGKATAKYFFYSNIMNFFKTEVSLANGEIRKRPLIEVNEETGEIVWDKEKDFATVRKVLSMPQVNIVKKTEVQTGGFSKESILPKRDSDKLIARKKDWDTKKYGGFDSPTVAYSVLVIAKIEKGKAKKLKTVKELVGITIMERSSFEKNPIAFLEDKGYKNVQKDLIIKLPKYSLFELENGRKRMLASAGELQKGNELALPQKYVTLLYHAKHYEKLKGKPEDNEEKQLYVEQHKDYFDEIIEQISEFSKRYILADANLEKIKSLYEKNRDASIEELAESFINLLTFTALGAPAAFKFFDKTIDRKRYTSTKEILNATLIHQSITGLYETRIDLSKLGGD
Assay: cell_activity; +++; HEK293T; PAM not stated
Procedure: The ability of the candidate endonucleases, including endonucleases 1-38 (CasEnds 1-38) (set forth in Table 1 and SEQ ID NOS: 1-38, respectively), to mediate target nucleic acid editing was assessed utilizing a blue fluorescent protein (BFP) to green fluorescent protein (GFP) conversion assay, wherein programmed nucleotide editing of the BFP gene was measured by the expression of GFP (signifying the conversion of […] via the programmed nucleotide edit in the BFP gene). The conversion assay was conducted utilizing the reverse transcriptase-based system (as described above in Example 2) comprising a template RNA (designed to convert BFP to GFP) and a fusion protein comprising a retroviral reverse transcriptase and the individual subject Cas endonuclease. The amino acid sequence of the base portion of the fusion protein (without the individual subject Cas endonuclease) is set forth in Table 7 (SEQ ID NO: 43).
Briefly, 200 ng of plasmid DNA encoding the subject fusion protein (containing one of the subject CasEnds) and 200 ng of template RNA (in plasmid format) were added to 25 μL SF buffer containing 250,000 HEK293T BFP-expressing cells. Nucleofection was mediated utilizing program DS-150. The day of nucleofection was marked as day 0. At day 4, the cells were harvested and analyzed by flow cytometry to assess the level of BFP and GFP expression in HEK293T cells. Cells having GFP signal were defined as having undergone a successful editing event, and the percent of cells that were GFP+ on day 4 was used to determine the performance of each Cas endonuclease.

B1: BFP-to-GFP template RNA ; BFP reporter protospacer (ssRNA ; dsDNA)
RNA: GCCGAAGCACUGCACGCCGUGUUUUAGAGCUAGAAAUAGCAAGUUAAAAUAAGGCUAGUCCGUUAUCAACUUGAAAAAGUGGCACCGAGUCGGUGCACCCUGACGUACGGCGUGCAGUGCUU
DNA 1: GCCGAAGCACTGCACGCCGT
DNA 2: ACGGCGTGCAGTGCTTCGGC
Question: Which activity does the source give for B1 here?
Answer: ≥ 100 % of reference
